Patent publication US20230348616A1 (MIE UNIVERSITY, published 2023)

How the values were obtained:
1F = target: T1, 1F; experiment: flow cytometry on peptide-pulsed T2 cells, scFv 100 nM
T1 construct: also called HLA-A2 / point-mutant NY-ESO peptide 1F complex on T2 cells
Experimental: (§1) The resultant was washed two times in the AIM-V medium containing 20% FBS, the concentration thereof was adjusted to an adequate level with PBS containing 5% FBS, the LIVE/DEAD Fixable Dead Cell Stain Kit (Thermo Fisher Scientific) was added thereto, and the resultant was allowed to stand at 4° C. for 30 minutes. The cells were washed 2 times in PBS containing 5% FBS, the washed cells were divided into two groups, the cells in PBS containing 5% FBS were seeded on a 96-well U-bottom microplate at 10⁵ cells/well, and the plate was subjected to centrifugation, followed by removal of the supernatant. Anti-HLA/NY-ESO scFv diluted to 100 nM with PBS containing 5% FBS was added at 25 μl/well to one of the divided cells, and the resultant was allowed to stand at 4° C. for 30 minutes. The cells were washed 2 times in PBS containing 5% FBS, Penta-His Alexa Fluor488 (QIAGEN) diluted in PBS containing 5% FBS was added at 25 μl/well, and the resultant was allowed to stand at 4° C. for 30 minutes. The cells were washed 2 times in PBS containing 5% FBS, Anti-mouse-IgG Alexa Fluor488 (Thermo Fisher Scientific) diluted in PBS containing 5% FBS was added at 25 μl/well, and the resultant was allowed to stand at 4° C. for 30 minutes. The cells were washed 2 times in PBS containing 5% FBS, immobilized with Mildform 10 N (FUJIFILM Wako Pure Chemical Corporation) overnight, and resuspended in PBS containing 5% FBS. […] The cells were washed 2 times in PBS containing 5% FBS, immobilized with Mildform 10 N (FUJIFILM Wako Pure Chemical Corporation) overnight, and resuspended in PBS containing 5% FBS. The cell suspensions were subjected to detection using a flow cytometer (CantoII, Becton Dickinson). […] The standardized gMFI indicating the binding affinity of each scFv standardized with the amount of the HLA/peptide complex on the T2 cells was determined in accordance with the following equation.

2M [1] = target: T2, 2M; experiment: as above
T2 construct: also called HLA-A2 / point-mutant NY-ESO peptide 2M complex on T2 cells
Experimental: as §1

3A [2] = target: T3, 3A; experiment: as above
T3 construct: also called HLA-A2 / point-mutant NY-ESO peptide 3A complex on T2 cells
Experimental: as §1

4A [3] = target: T4, 4A; experiment: as above
T4 construct: also called HLA-A2 / point-mutant NY-ESO peptide 4A complex on T2 cells
Experimental: as §1

5A [4] = target: T5, 5A; experiment: as above
T5 construct: also called HLA-A2 / point-mutant NY-ESO peptide 5A complex on T2 cells
Experimental: as §1

6L [5] = target: T6, 6L; experiment: as above
T6 construct: also called HLA-A2 / point-mutant NY-ESO peptide 6L complex on T2 cells
Experimental: as §1

7F = target: T7, 7F; experiment: as above
T7 construct: also called HLA-A2 / point-mutant NY-ESO peptide 7F complex on T2 cells
Experimental: as §1

8A = target: T8, 8A; experiment: as above
T8 construct: also called HLA-A2 / point-mutant NY-ESO peptide 8A complex on T2 cells
Experimental: as §1

9A [6] = target: T9, 9A; experiment: as above
T9 construct: also called HLA-A2 / point-mutant NY-ESO peptide 9A complex on T2 cells
Experimental: as §1

2M [7] = target: T10, 2M; experiment: flow cytometry, CD3e knockout T2 cells pulsed with 50 µM peptide, antibody at 100 nM, PE anti-human IgG; gMFI standardized to the HLA/peptide amount; DMSO-only cells 1.15
T10 construct: also called HLA-A2 / point-mutant NY-ESO peptide 2M complex on CD3e knockout T2 cells
Experimental: (§2) The cells were washed 2 times in PBS containing 5% FBS, PE conjugated F(ab′)2 Fragment Anti-Human IgG (Jackson Immuno Research Laboratories) diluted with PBS containing 5% FBS was added at 25 μl/well, and the resultant was allowed to stand at 4° C. for 30 minutes. The cells were washed 2 times in PBS containing 5% FBS, immobilized with Mildform 10 N (FUJIFILM Wako Pure Chemical Corporation) overnight, and resuspended in PBS containing 5% FBS. […] The cells were washed 2 times in PBS containing 5% FBS, immobilized with Mildform 10 N (FUJIFILM Wako Pure Chemical Corporation) overnight, and resuspended in PBS containing 5% FBS. The cell suspensions were subjected to detection using a flow cytometer (CantoII, Becton Dickinson). […] The standardized gMFI indicating the binding affinity of each Fc-conjugated anti-HLA-A2/NY-ESO-anti-CD3 bispecific molecule standardized with the amount of the HLA/peptide complex on the CD3e knockout T2 cells was determined in accordance with the following equation.

3A [8] = target: T11, 3A; experiment: as above
T11 construct: also called HLA-A2 / point-mutant NY-ESO peptide 3A complex on CD3e knockout T2 cells
Experimental: as §2

4A [9] = target: T12, 4A; experiment: as above
T12 construct: also called HLA-A2 / point-mutant NY-ESO peptide 4A complex on CD3e knockout T2 cells
Experimental: as §2

5A [10] = target: T13, 5A; experiment: as above
T13 construct: also called HLA-A2 / point-mutant NY-ESO peptide 5A complex on CD3e knockout T2 cells
Experimental: as §2

6L [11] = target: T14, 6L; experiment: as above
T14 construct: also called HLA-A2 / point-mutant NY-ESO peptide 6L complex on CD3e knockout T2 cells
Experimental: as §2

9A [12] = target: T15, 9A; experiment: as above
T15 construct: peptide added to CD3e knockout T2 cells at 50 µM; also called HLA-A2 / point-mutant NY-ESO peptide 9A complex on CD3e knockout T2 cells
Experimental: as §2

[13] = target: T16, HLA-A*0201/β2-microglobulin/NY-ESO peptide complex (human, biotinylated with E. coli biotin ligase at the added recognition sequence (biotinylated form used in the ELISA)); experiment: screening of NYA-0001 mutant phage libraries
T16 construct: also called HLA/NY-ESO; HLA-A2/NY-ESO

Binder	standardized gMFI (1F)	standardized gMFI (2M [1])	standardized gMFI (3A [2])	standardized gMFI (4A [3])	standardized gMFI (5A [4])	standardized gMFI (6L [5])	standardized gMFI (7F)	standardized gMFI (8A)	standardized gMFI (9A [6])	standardized gMFI (2M [7])	standardized gMFI (3A [8])	standardized gMFI (4A [9])	standardized gMFI (5A [10])	standardized gMFI (6L [11])	standardized gMFI (9A [12])	binding result [13]
NYC-0003 (scFv, not shown: small tags and cut ends, also called 3M4E5 scFv; NYC-0003 tag adduct) scFv: EVQLLESGGGLVQPGGSLRLSCAASGFTFSTYQMSWVRQAPGKGLEWVSGIVSSGGSTAYADSVKGRFTISRDNSKNTLYLQMNSLRAEDTAVYYCAGELLPYYGMDVWGQGTTVTVSSGGGGSGGGGSGGGGSQSELTQPRSVSGSPGQSVTISCTGTSRDVGGYNYVSWYQQHPGKAPKLIIHDVIERSSGVPDRFSGSKSGNTASLTISGLQAEDEADYYCWSFAGSYYVFGTGTDVTVL	3.28	3.73	4.34	0.76	0.69	4.14	3.99	3.42	4.77	–	–	–	–	–	–	–
NYC-0004 (scFv, not shown: small tags and cut ends, also called T1 scFv; NYC-0004 tag adduct) scFv: EVQLLESGGGLVQPGGSLRLSCAASGFTFSTYQMSWVRQAPGKGLEWVSGIVSSGGSTAYADSVKGRFTISRDNSKNTLYLQMNSLRAEDTAVYYCAGELLPYYGMDVWGQGTTVTVSSGGGGSGGGGSGGGGSQSELTQPRSVSGSPGQSVTISCTGTERDVGGYNYVSWYQQHPGKAPKLIIHDVIERSSGVPDRFSGSKSGNTASLTISGLQAEDEADYYCWSFAGGYYVFGTGTDVTVL	3.56	5.66	4.75	–	0.65	3.78	5.07	3.69	7.99	–	–	–	–	–	–	–
NYA-0001 (scFv, also called NYA-0001 tag adduct; NY-R119 expressed in a cultured mammalian cell) scFv: GEVQLVESGGGVVQPGRSLTPSCSASGFSIRSYDIHWVRQAPGKGLEWVATISYDGSQKYFADSVKGRFTIFRDESENMVYLQMSGLRVEDTAVYHCARGSSGHYEAFDIWGQGTMVTVSSGGGGSGGGGSGGGGSQSVLTQPPSVSAAPGQKVTISCSGSSSNIGNNYVSWYQQLPGTAPKLLIYDNNKRPSGIPDRFSGSKSGTSATLGITGLQTGDEADYYCGTWDSSLSAPWVFGGGTKVTVLGAAAGAGGDYKDDDDKGAAAHHHHHH	0.6	7.72	7.88	0.83	0.78	7.97	0.97	6.67	6.56	–	–	–	–	–	–	–
NYA-2027 (scFv) scFv: GEVQLVESGGGVVQPGRSLTPSCSASGFSIRSYDIHWVRQAPGKGLEWVATISYDGSQKYFADSVKGRFTIFRDESENMVYLQMSGLRVEDTAVYHCARGSSGHYEAFDIWGQGTMVTVSSGGGGSGGGGSGGGGSQSVLTQPPSVSAAPGQKVTISCSGSSSNIGNNYVSWYQQLPGTAPKLLIYDNNKRPSGIPDRFSGSKSGTSATLGITGLQTGDEADYYCGSWDSSLSAPWVFGGGTKVTVLGAAAGAGGDYKDDDDKGAAAHHHHHH	0.57	7.84	9.91	0.99	0.75	7.85	5.41	9.47	6.9	–	–	–	–	–	–	–
NYZ-1010 (bispecific antibody, human IgG1, lambda, L234A L235A) chain 1: not shown chain 2: not shown light: NFMLTQPSSVSGVPGQRVTISCTGNTGNIGSNYVNWYQQLPGTAPKLLIYRDDKRPSGVPDRFSGSKSGTSASLAITGFQAEDEADYYCQSYSSGFIFGGGTKLTVLGQPKAAPSVTLFPPSSEELQANKATLVCLISDFYPGAVTVAWKADSSPVKAGVETTTPSKQSNNKYAASSYLSLTPEQWKSHRSYSCQVTHEGSTVEKTVAPTECS	–	–	–	–	–	–	–	–	–	39.5	21.3	1.05	1.02	37.6	51.9	–
NYA-0060 (scFv, V domains shown, NYA-0001 mutant from a phage library) VH: EVQLVESGGGVVQPGRSLTPSCSASGFSIRSYDIHWVRLAPGKGLEWVATISYDGSQKYFADSVKGRFTIFRDESENMVYLQMSGLRVEDTAVYHCARGSSGHYEAFDIWGQGTMVTVSS VL: QSVLTQPPSVSAAPGQKVTISCSGSSSNIGNNYVSWYQQLPGTAPKLLIYDNNKRPSGIPDRFSGSKSGTSATLGITGLQTGDEADYYCGTWDSSLSAPWVFGGGTKVTVL	–	–	–	–	–	–	–	–	–	–	–	–	–	–	–	binds
NYA-0068 (scFv, V domains shown, NYA-0001 mutant from a phage library) VH: EVQLVESGGGVVQPGRSLTPSCSASGFSIRSYDIHWVRQAPGKGLEWVATISYDGSQKYFADSVKGRFTIFRDESENMVYLQMSGLRVEDTAVYHCARGSSGHYEAFDIWGQGTMVTVSS VL: QSVLTQPPSVSAAPGQKVTISCSGSSSNIGNWYVSWYQQLPGTAPKLLIYDNNKRPSGIPDRFSGSKSGTSATLGITGLQTGDEADYYCGTWDSSLSAPWVFGGGTKVTVL	–	–	–	–	–	–	–	–	–	–	–	–	–	–	–	binds
NYA-0082 (scFv, V domains shown, NYA-0001 mutant from a phage library) VH: EVQLVESGGGVVQPGRSLTPSCSASGFSIRSYDIHWVRQAPGKGLEWVATISYDGSQKYFADSVKGRFTIFRDESENMVYLQMSGLRVEDTAVYHCARGSSGHYEAFDIWGQGTMVTVSS VL: QSVLTQPPSVSAAPGQKVTISCSGSSSNIGNNYVSWYQRLPGTAPKLLIYDNNKRPSGIPDRFSGSKSGTSATLGITGLQTGDEADYYCGSWDSSLSAPWVFGGGTKVTVL	–	–	–	–	–	–	–	–	–	–	–	–	–	–	–	binds
NYA-2060 (scFv, also called NYA-2060 tag adduct) scFv: GEVQLVESGGGLVQPGGSLRLSCAASGFSIRSYDIHWVRQAPGKGLEWVATISYDGSQKYYADSVKGRFTISRDESKNTLYLQMNSLRAEDTAVYHCARGSSGHYEAFDIWGQGTLVTVSSGGGGSGGGGSGGGGSQSVLTQPPSVSAAPGQKVTISCSGSSSNIGNWYVSWYQQLPGTAPKLLIYDNNKRPSGIPDRFSGSKSGTSATLGITGLQTGDEADYYCGTWDSSLSAPWVFGGGTKVTVLGAAAGAGGDYKDDDDKGAAAHHHHHH	0.52	6.93	5.51	0.73	0.7	7.94	2.51	6.18	9.48	–	–	–	–	–	–	–
NYA-2061 (scFv, also called NYA-2061 tag adduct) scFv: GEVQLVESGGGLVQPGGSLRLSCAASGFSIRSYDIHWVRQAPGKGLEWVATISYDGSQKYYADSVKGRFTISRDESKNTLYLQMNSLRAEDTAVYHCARGSSGHYEAFDIWGQGTLVTVSSGGGGSGGGGSGGGGSQSVLTQPPSASGTPGQRVTISCSGSSSNIGNWYVSWYQQLPGTAPKLLIYDNNKRPSGVPDRFSGSKSGTSASLAISGLQSEDEADYYCGTWDSSLSAPWVFGGGTKLTVLGAAAGAGGDYKDDDDKGAAAHHHHHH	0.54	7.17	4.73	0.59	0.66	7.13	2.04	5.22	9.16	–	–	–	–	–	–	–
